Test system: mussels
Experiment: Mussel bioassay in scintillation vials
Format: in vivo
Experimental: Mussel bioassays were performed in twenty milliliter scintillation vials. Ten small mussels (approximately 1 cm long) were incubated in the mussel water (10 mL) for 24 hr first, then the mussel water (10 mL) was changed freshly before test cell lysis was added. Cell lysis or proteins (maximal 500 μL) was added into each vial. After 24 hr, the mussel water with cell lysis or proteins was changed with clean mussel water. Then, mussel water was changed every 24 hr with clean mussel water. Dead mussels were taken away every day and mussel mortality was calculated by number of dead mussel divided by the number of total mussels.

B1: dihydrolipoamide dehydrogenase (protein, UniProt P14218 2-478, looked up)
Dihydrolipoyl dehydrogenase: SQKFDVVVIGAGPGGYVAAIRAAQLGLKTACIEKYIGKEGKVALGGTCLNVGCIPSKALLDSSYKYHEAKEAFKVHGIEAKGVTIDVPAMVARKANIVKNLTGGIATLFKANGVTSFEGHGKLLANKQVEVTGLDGKTQVLEAENVIIASGSRPVEIPPAPLSDDIIVDSTGALEFQAVPKKLGVIGAGVIGLELGSVWARLGAEVTVLEALDKFLPAADEQIAKEALKVLTKQGLNIRLGARVTASEVKKKQVTVTFTDANGEQKETFDKLIVAVGRRPVTTDLLAADSGVTLDERGFIYVDDHCKTSVPGVFAIGDVVRGAMLAHKASEEGVMVAERIAGHKAQMNYDLIPSVIYTHPEIAWVGKTEQTLKAEGVEVNVGTFPFAASGRAMAANDTTGLVKVIADAKTDRVLGVHVIGPSAAELVQQGAIGMEFGTSAEDLGMMVFSHPTLSEALHEAALAVNGHAIHIANRKKR
notes: Molluscicidal protein isolated from Pseudomonas CL145A, identified as dihydrolipoamide dehydrogenase
B1 was tested, and the “Mussel mortality at 7th day” value (5 ppm, 7th day) was 50% and the “Activity in mussel bioassay of proteins and fractions dosed after gel analysis” value (in vivo) was “active”.

Reference: US8728754B1, “Use of proteins isolated from Pseudomonas to control molluscs” (priority 2013, dated 2014)
